Test results reported in doi:10.1101/2020.06.17.157982.

biological target: biotinylated human ACE2 ectodomain, which contains its natural dimerization domain (ACROBiosystems AC2-H82E6) (human) (UniProt Q9BYF1); assay: FACS
Sequence (Q9BYF1 18-740): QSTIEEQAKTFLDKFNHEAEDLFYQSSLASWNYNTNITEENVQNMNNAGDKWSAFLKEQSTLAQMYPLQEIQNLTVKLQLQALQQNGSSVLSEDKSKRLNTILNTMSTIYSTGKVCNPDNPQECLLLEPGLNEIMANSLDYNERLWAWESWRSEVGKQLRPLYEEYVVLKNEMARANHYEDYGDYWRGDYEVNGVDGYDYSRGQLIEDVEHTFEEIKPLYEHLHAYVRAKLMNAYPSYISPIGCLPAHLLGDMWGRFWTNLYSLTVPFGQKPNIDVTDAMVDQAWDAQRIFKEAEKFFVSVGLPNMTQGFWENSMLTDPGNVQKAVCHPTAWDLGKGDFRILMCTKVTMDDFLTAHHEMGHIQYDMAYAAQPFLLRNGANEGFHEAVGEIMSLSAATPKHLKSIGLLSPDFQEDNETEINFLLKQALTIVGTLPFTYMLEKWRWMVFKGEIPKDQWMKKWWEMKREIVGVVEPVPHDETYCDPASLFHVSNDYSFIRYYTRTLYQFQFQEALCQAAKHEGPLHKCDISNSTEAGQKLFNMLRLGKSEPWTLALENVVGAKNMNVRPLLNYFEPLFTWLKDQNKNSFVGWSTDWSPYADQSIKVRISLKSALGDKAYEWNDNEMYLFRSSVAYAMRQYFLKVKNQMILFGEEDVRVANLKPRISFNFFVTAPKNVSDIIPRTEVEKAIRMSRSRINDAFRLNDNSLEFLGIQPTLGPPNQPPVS

Which Kd does the source give for ZC45 RBD, yeast-displayed here?
The Kd was greater than 1000 nM.

For ZXC21 RBD, yeast-displayed, which Kd is on record?
Its Kd is greater than 1000 nM.

WIV1 RBD, yeast-displayed was tested. Which Kd did it give?
Its Kd is 0.017 nM.
